From patent US20230144447A1 (published 2023) come the findings set out here.

The test concerns the target T1, recombinant human CD22 protein with Fc segment (staining reagent) (human, UniProt P20273 20-687).
T1 construct: Reagent used for flow cytometry staining of the CAR; also called Fc fragment of a recombinant human CD22 protein; Fc segment of recombinant human CD22 protein; not shown: Fc segment
T1 sequence (looked up): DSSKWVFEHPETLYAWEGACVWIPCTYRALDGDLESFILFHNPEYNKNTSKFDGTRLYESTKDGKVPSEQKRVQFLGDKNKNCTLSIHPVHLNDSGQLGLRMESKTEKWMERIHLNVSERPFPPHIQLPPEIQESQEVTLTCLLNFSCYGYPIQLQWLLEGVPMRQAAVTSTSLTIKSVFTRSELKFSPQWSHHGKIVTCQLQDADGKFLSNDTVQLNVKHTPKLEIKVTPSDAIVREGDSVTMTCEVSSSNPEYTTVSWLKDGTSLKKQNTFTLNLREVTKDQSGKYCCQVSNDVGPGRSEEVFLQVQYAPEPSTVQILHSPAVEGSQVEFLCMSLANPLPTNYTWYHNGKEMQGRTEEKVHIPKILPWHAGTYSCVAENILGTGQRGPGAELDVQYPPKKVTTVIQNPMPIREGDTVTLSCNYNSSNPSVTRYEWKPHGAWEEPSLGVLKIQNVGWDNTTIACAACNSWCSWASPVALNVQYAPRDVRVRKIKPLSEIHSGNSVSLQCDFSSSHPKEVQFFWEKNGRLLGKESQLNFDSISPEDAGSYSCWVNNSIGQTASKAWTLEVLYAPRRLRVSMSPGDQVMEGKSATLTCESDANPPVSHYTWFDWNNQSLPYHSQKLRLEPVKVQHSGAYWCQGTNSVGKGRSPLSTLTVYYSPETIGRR
The experiment in a line: flow cytometry of CAR-T cells stained with recombinant human CD22-Fc protein, with untransduced T cells as control. As for the experimental part:
0.2×10⁶ of CART-CD22.5, CART-CD22.13 and CART-CD22.14 sample cells cultured to Day 6 in Example 2 (FIG. 2) were taken, and, after staining the Fc segment of recombinant human CD22 protein, the expression level of CAR-CD22 protein on the surface of T cell membranes was analyzed by flow cytometry, with untransduced T cells (NT cells) used as control.

B1: CAR-T22.13 chimeric antigen receptor (anti-CD22 scFv from antibody 16F7, CD8 hinge and transmembrane region, 4-1BB, CD3 zeta), on primary human T cells (other)
chain: EVQLVQSGAEVKKPGESLKISCKGSGYNFTSYWIGWVRQMPGKGLEWMGIIYPGDSDTRYSPSFQGQVTISADKSISTAYLQWSSLKASDTAMYYCATPTYYFGSVAFDIWGQGTMVTVSSGGGGSGGGGSGGGGSEIVLTQSPDFQSVTPKEKVTITCRASQSIGSSLHWYQQKPDQSPKLLIKYASQSFSGVPSRFSGSGSGTDFTLTINSLEAEDAAAYYCHQSSSLPYTFGQGTKLEIKFVPVFLPAKPTTTPAPRPPTPAPTIASQPLSLRPEACRPAAGGAVHTRGLDFACDIYIWAPLAGTCGVLLLSLVITLYCKRGRKKLLYIFKQPFMRPVQTTQEEDGCSCRFPEEEEGGCELRVKFSRSADAPAYQQGQNQLYNELNLGRREEYDVLDKRRGRDPEMGGKPRRKNPQEGLYNELQKDKMAEAYSEIGMKGERRRGKGHDGLYQGLSTATKDTYDALHMQALPPR
notes: CAR on the membrane of lentivirus-transduced T cells; also called CART-CD22.13; CAR22.13
As to B1, the binding result is reported as “binds”.

B2: CAR-T22.14 chimeric antigen receptor (anti-CD22 scFv from antibody 4G6, CD8 hinge and transmembrane region, 4-1BB, CD3 zeta), on primary human T cells (other)
chain: QVQLVQSGAEVKKPGSSVKVSCKPSGDTFSNYAISWVRQAPGQGLEWMGRIIPILGMAIYAPKFQGRVTITADKSTNTAFMDLTSLYFEDTAVYYCARAPTYWGSKDYFDYWGQGTLVTVSSGGGGSGGGGSGGGGSAIQLTQSPSSLSASVGDRVTITCRASQDISSGLAWYQQKPGTAPKLLIYDASSLESGVPSRFSGSGSGTDFTLTISSLQPDDFATYYCQQFNSFPYTFGQGTKLEIKFVPVFLPAKPTTTPAPRPPTPAPTIASQPLSLRPEACRPAAGGAVHTRGLDFACDIYIWAPLAGTCGVLLLSLVITLYCKRGRKKLLYIFKQPFMRPVQTTQEEDGCSCRFPEEEEGGCELRVKFSRSADAPAYQQGQNQLYNELNLGRREEYDVLDKRRGRDPEMGGKPRRKNPQEGLYNELQKDKMAEAYSEIGMKGERRRGKGHDGLYQGLSTATKDTYDALHMQALPPR
notes: CAR on the membrane of lentivirus-transduced T cells; also called CART-CD22.14; CAR22.14
Take B2: the binding result is on record as “binds”.
